According to paper PMC2173703 (The Journal of Cell Biology, 2003):
Read-outs that look alike come from different tables or passages of the source. Where no end group is shown, it is not given here. [ ]: non-standard residue; d: D form. pY = N[C@@H](Cc1ccc(OP(=O)(O)O)cc1)C(=O)O; pT = C[C@@H](OP(=O)(O)O)[C@H](N)C(=O)O

B4: GST-talin head, wild type (human talin1 1–435) (domain or fragment)
chain: MVALSLKISIGNVVKTMQFEPSTMVYDACRIIRERIPEAPAGPPSDFGLFLSDDDPKKGIWLEAGKALDYYMLRNGDTMEYRKKQRPLKIRMLDGTVKTIMVDDSKTVTDMLMTICARIGITNHDEYSLVRELMEEKKEEITGTLRKDKTLLRDEKKMEKLKQKLHTDDELNWLDHGRTLREQGVEEHETLLLRRKFFYSDQNVDSRDPVQLNLLYVQARDDILNGSHPVSFDKACEFAGFQCQIQFGPHNEQKHKAGFLDLKDFLPKEYVKQKGERKIFQAHKNCGQMSEIEAKVRYVKLARSLKTYGVSFFLVKEKMKGKNKLVPRLLGITKECVMRVDEKTKEVIQEWNLTNIKRWAASPKSFTLDFGDYQDGYYSVQTTEGEQIAQLIAGYIDIILKKKKSKDHFGLEGDEESTMLEDSVSPKKSTVLQQQ

Key:
[1] = system: tyrosine phosphorylation of PIPKIγ661 (Src family kinases); format: cell-based; conditions: HEK293T cells, 1 μM for 30 min at 37°C; Fig. 2 A
[2] = system: integrin–talin interaction; conditions: ref Martel et al., 2001; cited from earlier work
[3] = molecular target: B4; assay: pull-down
[4] = molecular target: B4; assay: pull-down; remark: listed apart in the source
[5] = molecular target: T1, fluorescein-labeled Y644-phosphorylated PIPKIγ661 peptide; assay: fluorescence polarisation
T1 peptide: fluorescein-CDERSWV[pY]SPLHYSAR

[6] = molecular target: T2, fluorescein-labeled Y649-phosphorylated PIPKIγ661 peptide; assay: fluorescence polarisation
T2 peptide: fluorescein-CDERSWVYSPLH[pY]SAR

CC(C)(C)n1nc(-c2ccc(Cl)cc2)c2c(N)ncnc21 [PP2]
inhibition of basal and FAK-induced tyrosine phosphorylation of PIPKIγ661 [1]: inhibited

Phosphatidylinositol 4,5-bisphosphate [PI4,5P2]
increase of the integrin–talin binding affinity [2]: ~10 fold

B1: PIPKIγ661 peptide PN (nonphosphorylated) (peptide)
peptide: CDERSWVYSPLHYSAR
binding result [3]: binds

B2: β1-integrin peptide β1InpT (peptide)
peptide: CMNAKWD[pT]GENPIYKSA
binding result [4]: binds

B3: β1-integrin peptide β1InPN (nonphosphorylated) (peptide)
peptide: CMNAKWDTGENPIYKSA
binding result [4]: binds

B4
fold increase in binding affinity against the nonphosphorylated peptide [5]: ~15 fold | fold increase in binding affinity against the nonphosphorylated peptide [6]: ~15 fold
